In paper PMC7673785:

Target: RIPK3 (UniProt Q9Y572)
Assay: anti-Flag co-IP, Myc blot
Conditions: reference: wild-type Myc-CSNK1G2; sites S211,T215

Substance: CSNK1G2 (from UniProt P78368) S211A/T215A
- binding against the reference: lost
